# Results as given in CN115028713A (JIANGSU DONGKANG BIOMEDICAL TECH CO LTD, dated 2022).
# B1: 单克隆抗体OP2 (anti-SARS-CoV-2 N protein monoclonal antibody OP2) (antibody, V domains shown)
# VH: DVQLVESGGGLVQPGGSRKLSCAASGSTFSNFGMHWVRQAPEKGLEWVAYISSASSIIYYADTVKGRFTISRDNPKNTLFLQMTSLRSEDTAMYYCARSAMDYWGQGTSVTVSS
# VL: DIVLTQSPASLAVSLGQRATISCKASQSVNYSGDSYMNWFQQKPGQPPKLLIYAASNLESGIPARFSGSGSGTDFTLNIHPVEEEDAATYYCQQSEEQPYTFGGGTKLEIK
# notes: also called 抗N蛋白的抗体
# Target: T1, SARS-COV2-N-B1617 (N protein of SARS-CoV-2 variant B1617) (SARS-CoV-2 variant B1617)
# T1 construct: also called 冠状病毒SARS-COV2变异株B1617
binder,measurement,value
B1,EC50,0.0166 µg/mL
